This note sets out measurements from patent US20140356359A1 (RINAT NEUROSCIENCE, published 2014).

For assay [1], the target named is full-length cyno GHR on transfected HEK293 cells (cynomolgus monkey). Put plainly: cell-based or functional assay.
Assay [2] deals with T1, human GHR (as in Tables 1 and 2) (human, UniProt P10912 49-253, limits assumed).
T1 sequence: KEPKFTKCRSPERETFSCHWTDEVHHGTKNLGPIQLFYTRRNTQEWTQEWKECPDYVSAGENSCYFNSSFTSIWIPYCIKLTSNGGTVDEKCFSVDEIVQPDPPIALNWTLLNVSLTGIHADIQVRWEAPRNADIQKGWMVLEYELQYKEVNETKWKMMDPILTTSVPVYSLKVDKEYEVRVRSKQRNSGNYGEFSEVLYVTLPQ
Put plainly: Biacore, Fab, 37 C.

Assay [3] addresses T2, cyno GHR, his-tagged monomer of amino acids 31-235 of the extracellular domain (cynomolgus monkey, UniProt Q9XSZ1 49-253 (Papio anubis entry)).
T2 construct: not shown: his tag
T2 chain: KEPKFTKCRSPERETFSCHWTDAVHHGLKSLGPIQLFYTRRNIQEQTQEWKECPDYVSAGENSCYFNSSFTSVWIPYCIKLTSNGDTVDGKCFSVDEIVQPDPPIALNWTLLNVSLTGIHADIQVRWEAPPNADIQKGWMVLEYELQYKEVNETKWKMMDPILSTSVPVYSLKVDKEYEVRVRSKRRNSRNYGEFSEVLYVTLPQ
Put plainly: Biacore T200, Fab captured on anti-human kappa, GHR as analyte, 37 C. Here is the method: (§1) An anti-human kappa sensor chip was prepared by activating all flow cells of a Biacore™ CM4 sensor chip with a 1:1 (v/v) mixture of 400 mM EDC and 100 mM NHS for 7 minutes, at a flow rate of 10 μL/min. […] All flow cells were blocked with 100 mM ethylenediamine in 150 mM borate buffer pH 8.5 for 7 minutes at 10 μL/min.
(§2) The kinetics assay was run using a methodology with varying dissociation times as described in Katsamba et al., supra. Fabs were captured onto downstream flow cells (flow cells 2, 3 and 4) at 2 μg/mL at a flow rate of 10 μL/min for 2 minutes. Different Fabs were captured on each flow cell. Flow cell 1 was used as a reference surface. Following capture of fabs, analyte (buffer, human GHR or cyno GHR) was injected at 30 μL/min on all flow cells for two minutes. […] A 6-membered dilution series of GHR was analyzed using this method, where the top concentration was 400 nM and the dilution factor was 3-fold. Buffer cycles were collected with both 30 minute and 60 second dissociation times for double-referencing purposes. The double-referenced sensorgrams were fit globally to a simple 1:1 Langmuir with mass transport binding model.
(§3) The experiments were performed at 37° C. using a running buffer of 10 mM HEPES, 150 mM NaCl, 0.05% (v/v) Tween-20™, pH 7.4.

Assay [4] addresses T3, human GHR, his-tagged monomer of amino acids 31-235 of the extracellular domain (human, UniProt P10912 49-253).
T3 construct: not shown: his tag
T3 sequence: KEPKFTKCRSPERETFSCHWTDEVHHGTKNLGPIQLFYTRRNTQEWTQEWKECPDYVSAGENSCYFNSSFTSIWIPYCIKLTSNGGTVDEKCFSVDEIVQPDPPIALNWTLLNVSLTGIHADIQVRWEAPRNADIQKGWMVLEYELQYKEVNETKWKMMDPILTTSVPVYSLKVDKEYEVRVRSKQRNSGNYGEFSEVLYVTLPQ
The assay is described as above. The method, then: as §1, §2, §3

The target of assay [5] is T4, hGHR-hFc fusion protein (R&D Systems Catalog#1210-GR) (human, UniProt P10912 19-264).
T4 construct: bought; also called hGHR/Fc; human GHR/hFc; not shown: human Fc of the bought fusion protein
T4 sequence: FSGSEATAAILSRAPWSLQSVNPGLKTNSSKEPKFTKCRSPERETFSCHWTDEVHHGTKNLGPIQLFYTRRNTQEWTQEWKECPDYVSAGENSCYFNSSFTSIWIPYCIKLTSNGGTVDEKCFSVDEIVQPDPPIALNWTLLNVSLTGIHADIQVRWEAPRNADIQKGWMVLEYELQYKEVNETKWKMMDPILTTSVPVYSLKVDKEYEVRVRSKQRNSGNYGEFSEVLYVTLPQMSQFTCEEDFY
Put plainly: Biacore T200, hGHR-hFc captured on anti-human Fc, Fab as analyte, 37 C. Here is the method: An anti-human Fc sensor chip was prepared by activating all flow cells of a Biacore™ CM4 sensor chip with a 1:1 (v/v) mixture of 400 mM EDC and 100 mM NHS for 7 minutes, at a flow rate of 10 μL/min. […] All flow cells were blocked with 100 mM ethylenediamine in 150 mM borate buffer pH 8.5 for 7 minutes at 10 μL/min.
The kinetics assay was run using a methodology with varying dissociation times as described in Katsamba et al., supra. […] Flow cell 1 was used as a reference surface. Following capture of hGHR-hFc, analyte (buffer, SS1 Fab or Ab13 Fab) was injected at 30 μL/min on all flow cells for two minutes. After the analyte injection, dissociation was monitored for 30 minutes (400 nM Fab cycle) or 60 seconds (all other cycles) followed by regeneration with two 30-second injections of 75 mM phosphoric acid. A 5-membered dilution series of Fab was analyzed using this method, where the top concentration was 400 nM and the dilution factor was 3-fold. Buffer cycles were collected at both 30 minute and 60 second dissociation times for double-referencing purposes. The double-referenced sensorgrams were fit globally to a simple 1:1 Langmuir with mass transport binding model (with a local Rmax parameter for each flow cell).
as §3

Assay [6] deals with T1, human GHR (as in Tables 1 and 2). Put plainly: Biacore, 37 C (asterisk).
Assay [7] addresses T2, cyno GHR, his-tagged monomer of amino …. Put plainly: Biacore 2000, antibody captured on anti-human Fc, GHR as analyte, 25 C. The method, then:
(§4) An anti-human Fc sensor chip was prepared by activating all flow cells of a Biacore™ CM4 sensor chip with a 1:1 (v/v) mixture of 400 mM ethyl-N-(3-[…])carbodiimide (EDC, Biacore™) and 100 mM N-hydroxysuccinimide (NHS, Biacore™) for 7 minutes, at a flow rate of 10 μL/min. […] All flow cells were blocked with 100 mM ethylenediamine in 150 mM borate buffer pH 8.5 for 7 minutes at 10 μL/min.
(§5) Antibodies were captured onto downstream flow cells (flow cells 2, 3 and 4) at 4 μg/mL at a flow rate of 10 μL/min for 1 minute. Different antibodies were captured on each flow cell. Flow cell 1 was used as a reference surface. Following capture of antibodies, analyte (buffer, human GHR or cyno GHR) was injected at 30 μL/min on all flow cells for two minutes. […] After the analyte injection, dissociation was monitored for 30 minutes (for the 400 nM GHR cycle) or 30 seconds (all other cycles) followed by regeneration of all flow cells with two 30-second injections of 75 mM phosphoric acid. A 5-membered dilution series of GHR was analyzed using this method, where the top concentration was 400 nM and the dilution factor was 3-fold. Buffer cycles were collected with both 30 minute and 30 second dissociation times for double-referencing purposes. The double-referenced sensorgrams were fit globally to a simple 1:1 Langmuir with mass transport binding model.
(§6) The experiments were performed at 25° C. using a running buffer of 10 mM HEPES, 150 mM NaCl, 0.05% (v/v) Tween-20™, pH 7.4.

The target in assay [8] is T3, human GHR, his-tagged monomer of amino …. The description is as above. The method, then: as §4, §5, §6
Assay [9] deals with T2, cyno GHR, his-tagged monomer of amino …. Put plainly: Biacore 2000, antibody captured on anti-human Fc, GHR as analyte, 25 C, replicate. The method, then:
as §4, §5, §6

The target of assay [10] is T3, human GHR, his-tagged monomer of amino …. Described as above. The method, then:
as §4, §5, §6

In assay [11] the target is T1, human GHR (as in Tables 1 and 2). Put plainly: Biacore, IgG2ΔA, 25 C.

Sequence of full-length cyno GHR on transfected HEK293 cells (cynomolgus monkey) (Q9XSZ1 other isoform, or with tags, fused parts or gaps limits assumed): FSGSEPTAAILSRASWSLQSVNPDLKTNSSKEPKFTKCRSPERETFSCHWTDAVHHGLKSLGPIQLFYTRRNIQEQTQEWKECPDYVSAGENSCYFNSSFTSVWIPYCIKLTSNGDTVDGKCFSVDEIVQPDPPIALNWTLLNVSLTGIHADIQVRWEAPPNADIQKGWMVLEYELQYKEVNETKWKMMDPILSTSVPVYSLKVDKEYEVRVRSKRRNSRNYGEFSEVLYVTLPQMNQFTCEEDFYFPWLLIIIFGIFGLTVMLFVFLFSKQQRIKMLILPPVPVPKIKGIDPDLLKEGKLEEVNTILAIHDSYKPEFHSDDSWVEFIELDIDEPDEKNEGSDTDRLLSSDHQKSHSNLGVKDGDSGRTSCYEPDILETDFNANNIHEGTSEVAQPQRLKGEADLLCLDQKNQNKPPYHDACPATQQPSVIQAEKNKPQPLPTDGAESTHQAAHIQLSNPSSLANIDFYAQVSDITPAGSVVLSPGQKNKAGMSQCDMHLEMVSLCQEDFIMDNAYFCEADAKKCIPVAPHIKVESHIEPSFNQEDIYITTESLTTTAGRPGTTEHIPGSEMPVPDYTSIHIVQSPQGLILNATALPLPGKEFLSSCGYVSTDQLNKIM

“human growth hormone (from UniProt P01241 27-217) (ligand)”: in assay [1], the STAT5 phosphorylation, fluorescent signal (Ave); 4.5 nM GH (fluorescent signal) came out at 562 and the STAT5 phosphorylation, fluorescent signal (ave); 4.5 nM GH (fluorescent signal) was found to be 847.

B1: SS1 Fab (Fab, V domains shown)
VH: EVQLVESGGGLVKPGGSLRLSCAASGFTFSDAWMDWVRQAPGKGLEWVAEIRSKANYHATYYAESVKGRFTISRDDSKNTLYLQMNSLKTEDTAVYYCTLIRDYWGQGTLVTVSS
VL: EIVLTQSPGTLSLSPGERATLSCTATSSVSSSYLNWYQQKPGQAPRLLIYSTSNLASGIPDRFSGSGSGTDFTLTISRLEPEDFAVYYCHQYHRSTPTFGGGTKVEIK
notes: Fab
On to B1, for which the Kd in assay [2] is 1.6 nM; in assay [3] it was 3.2 nM; in assay [4], 1.6 nM; in [5], 1 nM; in [6], 1.56 nM. The koff was determined as 0.000576 s⁻¹ in assay [3], 0.000215 s⁻¹ in [4] and 0.000359 s⁻¹ in [5]. Besides, the association rate constant (kon) was found to be 182000 M⁻¹ s⁻¹ in assay [3], 138000 M⁻¹ s⁻¹ in assay [4] and 374000 M⁻¹ s⁻¹ in assay [5]. Further, the figures for the “t 1/2” value in [3], in assay [4] and in assay [5] were 0.333 h, 0.895 h and 0.537 h, respectively.

B2: SS1 hIgG2Δa (antibody, V domains shown)
VH: EVQLVESGGGLVKPGGSLRLSCAASGFTFSDAWMDWVRQAPGKGLEWVAEIRSKANYHATYYAESVKGRFTISRDDSKNTLYLQMNSLKTEDTAVYYCTLIRDYWGQGTLVTVSS
VL: EIVLTQSPGTLSLSPGERATLSCTATSSVSSSYLNWYQQKPGQAPRLLIYSTSNLASGIPDRFSGSGSGTDFTLTISRLEPEDFAVYYCHQYHRSTPTFGGGTKVEIKR
notes: humanized IgG; also called SS1 (replicate)
As for B2, the dissociation constant (Kd) in assay [7] was 1.3 nM; in [8], 1 nM; in [9] it was 1.2 nM; in assay [10] it was 0.8 nM. The dissociation rate constant (koff) is 0.0001 s⁻¹ in [7], 7.7e-05 s⁻¹ in assay [8], 0.00011 s⁻¹ in [9] and 6.4e-05 s⁻¹ in [10]. For the same molecule, the association rate constant (kon) in assay [7] is 81000 M⁻¹ s⁻¹; in assay [8] it was 74000 M⁻¹ s⁻¹; in [9] it was 89000 M⁻¹ s⁻¹; in assay [10] it was 77000 M⁻¹ s⁻¹. For the same molecule, the “t 1/2” value in assay [7] came out at 1.85 h; in assay [8], 2.5 h; in [9] it was 1.78 h; in assay [10], 3 h.

B3: SS3 hIgG2Δa (antibody, V domains shown)
VH: EVQLVESGGGLVKPGGSLRLSCAASGFTFSDAWMDWVRQAPGKGLEWVAEIRSKANNHATYYAESVKGRFTISRDDSKNTLYLQMNSLKTEDTAVYYCTLFRDYWGQGTLVTVSS
VL: EIVLTQSPGTLSLSPGERATLSCTATSSVSSSYLNWYQQKPGQAPRLLIYSTSNLASGIPDRFSGSGSGTDFTLTISRLEPEDFAVYYCHQYHRFTPTFGGGTKVEIKR
notes: also called SS3 IgG2ΔA
In assay [11], B3 yielded a Kd of 1.7 nM.

B4: SS4 IgG2ΔA (antibody, V domains shown)
VH: EVQLVESGGGLVKPGGSLRLSCAASGFTFSDAWMDWVRQAPGKGLEWVAEIRSKANNHATYYAESVKGRFTISRDDSKNTLYLQMNSLKTEDTAVYYCTLYRDYWGQGTLVTVSS
VL: EIVLTQSPGTLSLSPGERATLSCTATSSVSSSYLHWYQQKPGQAPRLLIYSTSNLASGIPDRFSGSGSGTDFTLTISRLEPEDFAVYYCHQYHRSTPTFGGGTKVEIK
notes: IgG2ΔA
Consider B4, for which binding in assay [11] was characterised by a dissociation constant (Kd) of 43.1 nM. This Kd is about 25-fold higher than that of the molecule before.

B5: TM1 Fab (Fab, V domains shown)
VH: EVQLVESGGGLVKPGGSLRLSCAASGFTFSDAWMDWVRQAPGKGLEWVAEIRSKANYHATYYAESVKGRFTISRDDSKNTLYLQMNSLKTEDTAVYYCTLIRDYWGQGTLVTVSS
VL: EIVLTQSPGTLSLSPGERATLSCTATSSVSSWYLHWYQQKPGQAPRLLIYSTSNLASGIPDRFSGSGSGTDFTLTISRLEPEDFAVYYCHQYHRSTPTFGGGTKVEIK
notes: Fab
Consider B5, for which the Kd in assay [2] and in assay [6] was 3.4 nM in each case.

B6: TM9 Fab (Fab, V domains shown)
VH: EVQLVESGGGLVKPGGSLRLSCAASGFTFSDAWMDWVRQAPGKGLEWVAEIRSKANYHATYYAESVKGRFTISRDDSKNTLYLQMNSLKTEDTAVYYCTLIRDYWGQGTLVTVSS
VL: EIVLTQSPGTLSLSPGERATLSCTATSSVSSSYLHWYQQKPGQAPRLLIYSTSNLASGIPDRFSGSGSGTDFTLTISRLEPEDFAVYYCHQYHRGTPTFGGGTKVEIK
notes: Fab
On to B6, for which the dissociation constant (Kd) in [2] and in assay [6] was 3.3 nM in each case.

B7: SS3 Fab (Fab, V domains shown)
VH: EVQLVESGGGLVKPGGSLRLSCAASGFTFSDAWMDWVRQAPGKGLEWVAEIRSKANNHATYYAESVKGRFTISRDDSKNTLYLQMNSLKTEDTAVYYCTLFRDYWGQGTLVTVSS
VL: EIVLTQSPGTLSLSPGERATLSCTATSSVSSSYLNWYQQKPGQAPRLLIYSTSNLASGIPDRFSGSGSGTDFTLTISRLEPEDFAVYYCHQYHRFTPTFGGGTKVEIK
notes: Fab
For the molecule B7, the Kd in [2] and in [6] was 1.99 nM in each case.
